Laboratory results taken from the supplement of paper PMC11316812.
± gives the standard deviation of the averaged measurements.

How the values were obtained:
hTERT-HMEC = assay: percentage of EdU-negative (G0-arrested) nuclei per well, 72 h; higher = more G0 arrest; settings: reference: sequence is the full UniProt precursor, the tested protein was the secreted form or ectodomain
MCF7 = assay: as above; settings: reference: sequence is the full UniProt precursor, the tested protein was the secreted form or ectodomain
[1] = protein concentration 0.0225 µM
[2] = protein concentration 0.03125 µM
[3] = protein concentration 0.3125 µM
[4] = protein concentration 0.02103 µM
[5] = protein concentration 0.2103 µM
[6] = protein concentration 0.01175 µM
[7] = protein concentration 0.1175 µM
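Also: secreted proteins added to cultured cells, EdU pulse at the end, nuclei found by Hoechst imaging, EdU status from nuclear versus surrounding ring intensity ratio, PBS as neutral control.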

| Sequence | percentage of EdU-negative (hTERT-HMEC; [1]) [%] | percentage of EdU-negative (hTERT-HMEC; protein concentration 0.225 µM) [%] | percentage of EdU-negative (MCF7; [1]) [%] | percentage of EdU-negative (MCF7; protein concentration 0.225 µM) [%] | percentage of EdU-negative (hTERT-HMEC; [2]) [%] | percentage of EdU-negative (hTERT-HMEC; [3]) [%] | percentage of EdU-negative (MCF7; [2]) [%] | percentage of EdU-negative (MCF7; [3]) [%] | other results |
| --- | --- | --- | --- | --- | --- | --- | --- | --- | --- |
| MLPPPRPAAALALPVLLLLLVVLTPPPTGARPSPGPDYLRRGWMRLLAEGEGCAPCRPEECAAPRGCLAGRVRDACGCCWECANLEGQLCDLDPSAHFYGHCGEQLECRLDTGGDLSRGEVPEPLCACRSQSPLCGSDGHTYSQICRLQEAARARPDANLTVAHPGPCESGPQIVSHPYDTWNVTGQDVIFGCEVFAYPMASIEWRKDGLDIQLPGDDPHISVQFRGGPQRFEVTGWLQIQAVRPSDEGTYRCLGRNALGQVEAPASLTVLTPDQLNSTGIPQLRSLNLVPEEEAESEENDDYY [Q96I82] | 5.43 ± 0.24 | 5.18 ± 0.4 | 25.7 ± 0.96 | 28.1 ± 2.9 |  |  |  |  |  |
| MKVVPSLLLSVLLAQVWLVPGLAPSPQSPETPAPQNQTSRVVQAPKEEEEDEQEASEEKASEEEKAWLMASRQQLAKETSNFGFSLLRKISMRHDGNMVFSPFGMSLAMTGLMLGATGPTETQIKRGLHLQALKPTKPGLLPSLFKGLRETLSRNLELGLTQGSFAFIHKDFDVKETFFNLSKRYFDTECVPMNFRNASQAKRLMNHYINKETRGKIPKLFDEINPETKLILVDYILFKGKWLTPFDPVFTEVDTFHLDKYKTIKVPMMYGAGKFASTFDKNFRCHVLKLPYQGNATMLVVLMEKMGDHLALEDYLTTDLVETWLRNMKTRNMEVFFPKFKLDQKYEMHELLRQMGIRRIFSPFADLSELSATGRNLQVSRVLQRTVIEVDERGTEAVAGILSEITAYSMPPVIKVDRPFHFMIYEETSGMLLFLGRVVNPTLL [Q9UK55] |  |  |  |  | 4.46 ± 0.39 | 11.5 ± 0.79 | 24.6 ± 0.79 | 29.5 ± 0.31 |  |
| MTCKMSQLERNIETIINTFHQYSVKLGHPDTLNQGEFKELVRKDLQNFLKKENKNEKVIEHIMEDLDTNADKQLSFEEFIMLMARLTWASHEKMHEGDEGPGHHHKPGLGEGTP |  |  |  |  | 5.56 ± 0.9 | 5.25 ± 0.34 | 26 ± 1.1 | 24.6 ± 0.91 |  |
| MRVAGAAKLVVAVAVFLLTFYVISQVFEIKMDASLGNLFARSALDTAARSTKPPRYKCGISKACPEKHFAFKMASGAANVVGPKICLEDNVLMSGVKNNVGRGINVALANGKTGEVLDTKYFDMWGGDVAPFIEFLKAIQDGTIVLMGTYDDGATKLNDEARRLIADLGSTSITNLGFRDNWVFCGGKGIKTKSPFEQHIKNNKDTNKYEGWPEVVEMEGCIPQKQD |  |  |  |  |  |  |  |  | percentage of EdU-negative (hTERT-HMEC; [4]): 4.78 ± 1.5%; percentage of EdU-negative (hTERT-HMEC; [5]): 5.17 ± 1.7%; percentage of EdU-negative (MCF7; [4]): 25.3 ± 0.58%; percentage of EdU-negative (MCF7; [5]): 24.9 ± 1.8% |
| MKLAFLFLGPMALLLLAGYGCVLGASSGNLRTFVGCAVREFTFLAKKPGCRGLRITTDACWGRCETWEKPILEPPYIEAHHRVCTYNETKQVTVKLPNCAPGVDPFYTYPVAIRCDCGACSTATTECETI [Q86YW7] | 5.52 ± 0.71 | 5.1 ± 0.082 | 25.3 ± 2.8 | 25.8 ± 1.5 |  |  |  |  |  |
| MEKILFYLFLIGIAVKAQICPKRCVCQILSPNLATLCAKKGLLFVPPNIDRRTVELRLADNFVTNIKRKDFANMTSLVDLTLSRNTISFITPHAFADLRNLRALHLNSNRLTKITNDMFSGLSNLHHLILNNNQLTLISSTAFDDVFALEELDLSYNNLETIPWDAVEKMVSLHTLSLDHNMIDNIPKGTFSHLHKMTRLDVTSNKLQKLPPDPLFQRAQVLATSGIISPSTFALSFGGNPLHCNCELLWLRRLSREDDLETCASPPLLTGRYFWSIPEEEFLCEPPLITRHTHEMRVLEGQRATLRCKARGDPEPAIHWISPEGKLISNATRSLVYDNGTLDILITTVKDTGAFTCIASNPAGEATQIVDLHIIKLPHLLNSTNHIHEPDPGSSDISTSTKSGSNTSSSNGDTKLSQDKIVVAEATSSTALLKFNFQRNIPGIRMFQIQYNGTYDDTLVYRMIPPTSKTFLVNNLAAGTMYDLCVLAIYDDGITSLTATRVVGCIQFTTEQDYVRCHFMQSQFLGGTMIIIIGGIIVASVLVFIIILMIRYKVCNNNGQHKVTKVSNVYSQTNGAQIQGCSVTLPQSVSKQAVGHEENAQCCKATSDNVIQSSETCSSQDSSTTTSALPPSWTSSTSVSQKQKRKTGTKPSTEPQNEAVTNVESQNTNRNNSTALQLASRPPDSVTEGPTSKRAHIKPNALLTNVDQIVQETQRLELI [G3V364] |  |  |  |  |  |  |  |  | percentage of EdU-negative (hTERT-HMEC; [6]): 4.44 ± 0.44%; percentage of EdU-negative (hTERT-HMEC; [7]): 6.29 ± 1.1%; percentage of EdU-negative (MCF7; [6]): 25.9 ± 2.7%; percentage of EdU-negative (MCF7; [7]): 27.1 ± 1.2% |
